# Source: patent US20250326865A1, “C-MET PROTEIN-BINDING PEPTIDE COMPLEX” (PeptiDream Inc., priority 2021, published 2025)
# Starred links: 1 amine or outer side, 2 acyl side, 3 side chain; linkers in the order of their positions; H or OH if unused. Positions of bridges follow the written chain, without caps; N, C: chain ends. Non-standard residues stand in square brackets, D forms with d. Residues, ends and D or L forms follow the SMILES beside them. Primed or numbered codes have the meaning given here. Chains are numbered I, II in the order given. No end group written: not given here. CO(CH2)2(OCH2CH2)17CO = O=C(CCOCCOCCOCCOCCOCCOCCOCCOCCOCCOCCOCCOCCOCCOCCOCCOCCOCCC(=O)[*:2])[*:1]; CO(CH2CH2O)9CH2CH2CO = O=C(CCOCCOCCOCCOCCOCCOCCOCCOCCOCCC(=O)[*:2])[*:1]; NMeF = CN[C@@H](Cc1ccccc1)C(=O)O; Ahp(2) = CCCCC[C@H](N)C(=O)O; NMeC = CN[C@@H](CS)C(=O)O; Nle = CCCC[C@H](N)C(=O)O; Ahp′ = not defined here; Abu = CC[C@H](N)C(=O)O
# B1: Peptide complex No. 46 in Table 4 (peptide SEQ ID NO: 32, GFs_c-Met-00014297p; linker SEQ ID NO: 36) (peptide)
# peptide: {CH2CO}-[NMeF]TAVS[NMeF]DPD[Ahp(2)]PRWA[NMeC]
# chain: GK[CO(CH2CH2O)9CH2CH2CO]KG
# modifications: thioether I:N-I:15 (inferred); also: homodimer of two cyclic peptides joined by linker G-K-cPEG9c-K-G, peptide C-terminus on linker
# B2: Peptide complex No. 43 in Table 4 (peptide SEQ ID NO: 31, Gfs_c-Met-00014294p; linker SEQ ID NO: 38) (peptide)
# peptide: {CH2CO}-[NMeF]TAVS[NMeF]DSD[Ahp(2)]PRWA[NMeC]
# chain: GK[CO(CH2)2(OCH2CH2)17CO]KG
# modifications: thioether I:N-I:15 (inferred); also: homodimer of two cyclic peptides joined by linker G-K-cPEG17c-K-G, peptide C-terminus on linker
# B3: Peptide complex No. 48 in Table 4 (peptide SEQ ID NO: 33, GFs_c-Met-00014300p; linker SEQ ID NO: 36) (peptide)
# peptide: {CH2CO}-[NMeF]TAVS[NMeF]DPD[Ahp(2)]PRWS[NMeC]
# chain: GK[CO(CH2CH2O)9CH2CH2CO]KG
# modifications: thioether I:N-I:15 (inferred); also: homodimer of two cyclic peptides joined by linker, peptide C-terminus on linker
# B4: GFs_c-Met-00014318-PEG9 dimer (peptide SEQ ID NO: 34, GFs_c-Met-00014336p; linker SEQ ID NO: 36) (peptide)
# peptide: {CH2CO}-[NMeF]TAVS[NMeF]DED[Ahp(2)]PRWS[NMeC]
# chain: GK[CO(CH2CH2O)9CH2CH2CO]KG
# modifications: thioether I:N-I:15 (inferred); also: homodimer: two cyclic peptides joined by linker G-K-cPEG9c-K-G, peptide C-terminus on linker
# B5: Peptide complex No. 41 in Table 4 (peptide SEQ ID NO: 30, GFs_c-Met-00014304p; linker SEQ ID NO: 38) (peptide)
# peptide: {CH2CO}-[NMeF]TAVS[NMeF]DSDRPRWS[NMeC]
# chain: GK[CO(CH2)2(OCH2CH2)17CO]KG
# modifications: thioether I:N-I:15 (inferred); also: homodimer of two cyclic peptides joined by linker G-K-cPEG17c-K-G, peptide C-terminus on linker
# B6: Peptide complex No. 47 in Table 4 (peptide SEQ ID NO: 33, GFs_c-Met-00014300p; linker SEQ ID NO: 38) (peptide)
# peptide: {CH2CO}-[NMeF]TAVS[NMeF]DPD[Ahp(2)]PRWS[NMeC]
# chain: GK[CO(CH2)2(OCH2CH2)17CO]KG
# modifications: thioether I:N-I:15 (inferred); also: homodimer of two cyclic peptides joined by linker G-K-cPEG17c-K-G, peptide C-terminus on linker
# B7: Peptide complex No. 40 in Table 4 (peptide SEQ ID NO: 29, GFs_c-Met-00014306p; linker SEQ ID NO: 36) (peptide)
# peptide: {CH2CO}-[NMeF]TAVSLDSD[Ahp(2)]PRWS[NMeC]
# chain: GK[CO(CH2CH2O)9CH2CH2CO]KG
# modifications: thioether I:N-I:15 (inferred); also: homodimer of two cyclic peptides joined by linker G-K-cPEG9c-K-G, peptide C-terminus on linker
# B8: GFs_c-Met-00014305-PEG17 dimer (peptide SEQ ID NO: 34, GFs_c-Met-00014336p; linker SEQ ID NO: 38) (peptide)
# peptide: {CH2CO}-[NMeF]TAVS[NMeF]DED[Ahp(2)]PRWS[NMeC]
# chain: GK[CO(CH2)2(OCH2CH2)17CO]KG
# modifications: thioether I:N-I:15 (inferred); also: homodimer: two cyclic peptides joined by linker G-K-cPEG17c-K-G, peptide C-terminus on linker
# B9: Peptide complex No. 44 in Table 4 (peptide SEQ ID NO: 31, Gfs_c-Met-00014294p; linker SEQ ID NO: 36) (peptide)
# peptide: {CH2CO}-[NMeF]TAVS[NMeF]DSD[Ahp(2)]PRWA[NMeC]
# chain: GK[CO(CH2CH2O)9CH2CH2CO]KG
# modifications: thioether I:N-I:15 (inferred); also: homodimer of two cyclic peptides joined by linker G-K-cPEG9c-K-G, peptide C-terminus on linker
# B10: Peptide complex No. 42 in Table 4 (peptide SEQ ID NO: 30, GFs_c-Met-00014304p; linker SEQ ID NO: 36) (peptide)
# peptide: {CH2CO}-[NMeF]TAVS[NMeF]DSDRPRWS[NMeC]
# chain: GK[CO(CH2CH2O)9CH2CH2CO]KG
# modifications: thioether I:N-I:15 (inferred); also: homodimer of two cyclic peptides joined by linker G-K-cPEG9c-K-G, peptide C-terminus on linker
# B11: Peptide complex No. 45 in Table 4 (peptide SEQ ID NO: 32, GFs_c-Met-00014297p; linker SEQ ID NO: 38) (peptide)
# peptide: {CH2CO}-[NMeF]TAVS[NMeF]DPD[Ahp(2)]PRWA[NMeC]
# chain: GK[CO(CH2)2(OCH2CH2)17CO]KG
# modifications: thioether I:N-I:15 (inferred); also: homodimer of two cyclic peptides joined by linker G-K-cPEG17c-K-G, peptide C-terminus on linker
# Target: T1, c-Met (Homo sapiens, UniProt P08581)
# T1 construct: endogenous in cells; host or cells: A431 (human)
# Experiment: Phospho-c-Met AlphaLISA assay (c-Met agonist activity) in A431 cells
# Format: cell-based
# Conditions: c-Met phosphorylation (Tyr1234/1235) in A431 cells, 15 minutes of stimulation; maximum signal induced by HGF = 100%
# Description: To evaluate the activation potency (c-Met agonist activity) of c-Met of the peptide complex of the present invention, the phosphorylation of c-Met was verified. Human A431 cells were cultured in DMEM high glucose, GlutaMAX (registered trademark) Supplement, pyruvate (Thermo Fisher Scientific), containing 10% FBS (Gibco). After cells were detached using Accutase (Innovative cell technologies), they were seeded into a 96-well plate at 10000 cells per well and cultured overnight. The next day, for starvation, the culture medium was changed to DMEM high glucose, GlutaMAX (registered trademark) Supplement, pyruvate (Thermo Fisher Scientific), containing 0.1% BSA (Sigma-Aldrich), and the cells were cultured overnight. Then, the peptide complex synthesized in Example 3 or Recombinant Human HGF Protein (R&D systems) as a control was added, and after 15 minutes of stimulation, cells were lysed in a Lysis Buffer provided in the AlphaLISA (registered trademark) SureFire (registered trademark) Ultra™ Phospho-c-Met (Tyr1234/1235) kit (PerkinElmer). The assay was performed according to the kit protocol, and a SpectraMax (registered trademark) Paradigm (registered trademark) multimode microplate reader (Molecular Devices, LLC.) was used for signal detection. […] In the same manner, the C50 value was calculated by GraphPad Prism as the concentration of peptide showing 50% activity of the signal induced by HGF. […] Further, for a complex (GFs_c-Met-00014336-PEG13 dimer; complex no. 49 in Table 4) of a peptide (SEQ ID NO: 34) and a linker (SEQ ID NO: 37), a graph of c-Met agonist activity is shown in FIG. 1.
# T1 sequence (P08581 25-1390): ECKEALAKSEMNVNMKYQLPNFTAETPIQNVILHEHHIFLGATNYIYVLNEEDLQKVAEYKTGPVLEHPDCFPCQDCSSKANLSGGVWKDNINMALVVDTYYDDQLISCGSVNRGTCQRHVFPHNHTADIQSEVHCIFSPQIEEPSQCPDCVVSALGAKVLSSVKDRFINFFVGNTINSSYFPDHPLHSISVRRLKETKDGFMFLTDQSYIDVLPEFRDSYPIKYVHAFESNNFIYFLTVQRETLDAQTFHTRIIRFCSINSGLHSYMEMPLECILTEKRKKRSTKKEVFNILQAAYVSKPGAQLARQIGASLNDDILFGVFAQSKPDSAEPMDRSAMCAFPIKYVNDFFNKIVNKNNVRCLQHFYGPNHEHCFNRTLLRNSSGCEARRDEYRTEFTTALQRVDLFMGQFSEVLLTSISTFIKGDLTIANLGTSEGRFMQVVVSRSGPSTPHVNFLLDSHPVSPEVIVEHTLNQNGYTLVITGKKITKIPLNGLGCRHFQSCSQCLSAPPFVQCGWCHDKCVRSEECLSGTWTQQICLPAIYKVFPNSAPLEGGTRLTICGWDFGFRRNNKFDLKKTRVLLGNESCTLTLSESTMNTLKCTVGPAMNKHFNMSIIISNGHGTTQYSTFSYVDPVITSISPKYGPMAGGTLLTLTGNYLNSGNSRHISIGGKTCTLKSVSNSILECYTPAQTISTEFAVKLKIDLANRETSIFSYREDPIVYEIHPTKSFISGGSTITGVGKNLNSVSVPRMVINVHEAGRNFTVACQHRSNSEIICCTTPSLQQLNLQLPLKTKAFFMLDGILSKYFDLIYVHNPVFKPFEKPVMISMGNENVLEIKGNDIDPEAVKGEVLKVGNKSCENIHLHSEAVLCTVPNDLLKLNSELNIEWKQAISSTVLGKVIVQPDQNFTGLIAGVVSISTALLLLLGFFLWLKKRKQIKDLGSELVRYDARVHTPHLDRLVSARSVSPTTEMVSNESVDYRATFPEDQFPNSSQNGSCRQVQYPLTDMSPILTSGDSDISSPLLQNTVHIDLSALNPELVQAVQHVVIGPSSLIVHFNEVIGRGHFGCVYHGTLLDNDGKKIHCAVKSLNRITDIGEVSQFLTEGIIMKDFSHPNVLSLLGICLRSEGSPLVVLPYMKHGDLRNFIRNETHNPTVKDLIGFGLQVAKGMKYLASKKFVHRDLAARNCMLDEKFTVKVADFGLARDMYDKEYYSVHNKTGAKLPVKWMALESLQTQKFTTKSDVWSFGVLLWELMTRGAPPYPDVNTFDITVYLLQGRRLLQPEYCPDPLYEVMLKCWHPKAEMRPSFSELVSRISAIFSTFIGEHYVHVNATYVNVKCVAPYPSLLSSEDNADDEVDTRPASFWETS
row,Molecule,C-Met Agonist Activity (2 or 1)
1,11 ({CH2CO}-[NMeF]VYVS[NMeF]DDD[Ahp′]PRW[Abu][NMeC]; thioether N-15 (inferred); not fully specified; reading uncertain; also: conjugated moiety via linker) [Peptide 11],2 (those showing more than 50% activation were described as 2)
2,10 ({CH2CO}-[NMeF]VYVS[NMeF]DDD[Ahp′]PSWS[NMeC]; thioether N-15 (inferred); not fully specified; reading uncertain; also: conjugated moiety via linker) [Peptide 10],1 (those showing less than 50% activation as 1)
3,12 ({CH2CO}-[NMeF]VYVS[NMeF]DDD[Ahp′]PRWD[NMeC]; thioether N-15 (inferred); not fully specified; reading uncertain; also: conjugated moiety via linker) [Peptide 12],2 (those showing more than 50% activation were described as 2)
4,"4 (AVYVS[NMeF]DDD[Ahp′]PRWS[NMeC]; not fully specified (N-terminus, bridges); reading uncertain; also: conjugated moiety via linker) [Peptide 4]",1 (those showing less than 50% activation as 1)
5,6 ([NMeF]VDVS[NMeF]DDD[Ahp′]PRWS[NMeC]; not fully specified; reading uncertain) [Peptide 6],2 (those showing more than 50% activation were described as 2)
6,15 ({CH2CO}-[NMeF]VYVS[NMeF]DDD[Ahp′]PRWV[NMeC]; thioether N-15 (inferred); not fully specified; reading uncertain; also: conjugated moiety via linker) [Peptide 15],2 (those showing more than 50% activation were described as 2)
7,8 ({CH2CO}-[NMeF]VYVS[NMeF]DDD[Nle]PRWS[NMeC]; thioether N-15 (inferred); not fully specified; also: conjugated moiety via linker) [Peptide 8],2 (those showing more than 50% activation were described as 2)
8,2 ({CH2CO}-[MeA]VYVS[NMeF]DDD[Ahp′]PRWS[NMeC]; thioether N-15 (inferred); not fully specified; reading uncertain; also: conjugated moiety via linker) [Peptide 2],1 (those showing less than 50% activation as 1)

# Same assay, conditions: concentration of peptide showing 50% activity of the signal induced by HGF; A431 cells, 15 minutes of stimulation; read-out: C-Met Agonist Activity (C50; nM)
row,EC50,Molecule
1,0.67 nM,"CCCCC[C@@H]1NC(=O)[C@H](CC(=O)O)NC(=O)[C@@H]2CCCN2C(=O)[C@H](CC(=O)O)NC(=O)[C@H](Cc2ccccc2)N(C)C(=O)[C@H](CO)NC(=O)[C@H](C(C)C)NC(=O)[C@H](C)NC(=O)[C@H]([C@@H](C)O)NC(=O)[C@H](Cc2ccccc2)N(C)C(=O)CSC[C@@H](C(=O)NCC(=O)N[C@@H](CCCCNC(=O)CCOCCOCCOCCOCCOCCOCCOCCOCCOCCC(=O)NCCCC[C@H](NC(=O)CNC(=O)[C@@H]2CSCC(=O)N(C)[C@@H](Cc3ccccc3)C(=O)N[C@@H]([C@@H](C)O)C(=O)N[C@@H](C)C(=O)N[C@@H](C(C)C)C(=O)N[C@@H](CO)C(=O)N(C)[C@@H](Cc3ccccc3)C(=O)N[C@@H](CC(=O)O)C(=O)N3CCC[C@H]3C(=O)N[C@@H](CC(=O)O)C(=O)N[C@@H](CCCCC)C(=O)N3CCC[C@H]3C(=O)N[C@@H](CCCNC(=N)N)C(=O)N[C@@H](Cc3c[nH]c4ccccc34)C(=O)N[C@@H](C)C(=O)N2C)C(N)=O)C(N)=O)N(C)C(=O)[C@H](C)NC(=O)[C@H](Cc2c[nH]c3ccccc23)NC(=O)[C@H](CCCNC(=N)N)NC(=O)[C@@H]2CCCN2C1=O [Peptide 46] (I: {CH2CO}-[NMeF]TAVS[NMeF]DPD[Ahp(2)]PRWA[NMeC]GK-NH2 / II: {CH2CO}-[NMeF]TAVS[NMeF]DPD[Ahp(2)]PRWA[NMeC]GK-NH2; linker I:17-II:17 via CO(CH2CH2O)9CH2CH2CO (inferred); thioether I:N-I:15, II:N-II:15 (inferred))"

# Target: human c-Met protein (human, UniProt P08581 25-1390)
# Experiment: cell-based or functional assay
# Conditions: not given
# Chain of human c-Met protein (P08581 25-1390): as the sequence (P08581 25-1390) above
row,"C-Met Agonist Activity (C50; nM): phospho-c-Met AlphaLISA, A431 cells",Molecule
1,0.67 nM,B1
2,0.45 nM,B2
3,0.35 nM,B3
4,0.24 nM,B4
5,0.32 nM,B5
6,0.5 nM,B6
7,2.13 nM,B7
8,0.27 nM,B8
9,0.33 nM,B9
10,0.33 nM,B10
11,0.71 nM,B11
